The values that follow come from PMC5552922.

For data set [1], the target named is T1, DdrOC cleaved by IrrE (Deinococcus deserti) (UniProt C1CYP4).
T1 sequence: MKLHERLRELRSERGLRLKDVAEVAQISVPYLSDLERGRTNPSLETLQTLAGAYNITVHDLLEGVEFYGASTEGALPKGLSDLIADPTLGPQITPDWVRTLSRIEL
The data set can be described thus: EMSA. The following applies: EMSA: 10 mM Tris-HCl pH 7.4, 60 mM NaCl, 1 mM DTT, 5% glycerol, 200 ng DNA in 20 ul, 30 min room temperature; 5% PAGE in TAE at 4 C, ethidium bromide. (Mobility shift assays separate free from complexed probe on a gel.)

The target in data set [2] is T2, DdrOC (DdrO) (Deinococcus deserti) (UniProt C1CYP4).
T2 sequence: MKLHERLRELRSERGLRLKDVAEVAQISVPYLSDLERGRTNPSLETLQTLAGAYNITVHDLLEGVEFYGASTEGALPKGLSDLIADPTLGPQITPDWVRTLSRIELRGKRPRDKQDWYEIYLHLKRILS
The data set can be described thus: EMSA. The following applies: EMSA: 10 mM Tris-HCl pH 7.4, 60 mM NaCl, 1 mM DTT, 5% glycerol, 200 ng DNA in 20 ul, 30 min room temperature; 5% PAGE in TAE at 4 C, ethidium bromide.

As for “TATAGGTACCGGTACTCCTTCCTGTCCGACAGCAGACAGCGAGGCAAAGCATGAATAGTCGGTCTTAAGGGGGTAAAAGCCTTCTTGATTACGATCATAGCAGATCGTCTCGTGGTGGGCAAGAAGAACTCCTCTCTATTCTGTATTGACCGTACCGGGAAGCGGTGTTACACTCCAACCAAGGGTGCCCGATTCTGCCTACAGGCAAACGCTCCCCCAGGCGGCCCGCCCGGTCAGCGCACAGTCCCGGTCGCTCAAAGCTGCAGTATC (double strand) [ddrOC-ddrQ intergenic region]”, the binding entry in data set [1] is “no binding”; in data set [2], “binds”.
